According to publication PMC9482650, “Quantitative fragmentomics allow affinity mapping of interactomes” (Nature Communications, 2022):

Assays:
Assay in all cases: holdup assay
Design in all cases: key: below the threshold = too weak to quantify, mostly under pKd 3.1 to 4
Conditions in all cases: plain residues with an end cap or a label only (N-terminal biotin on a linker: ado-ado)
[1] = biological target: ARHGEF12, Q9NZN5-2
[2] = biological target: CASK, O14936
[3] = biological target: T1, DFNB31_1, Q9P202
T1 sequence (Q9P202 135-233, limits assumed, looked up): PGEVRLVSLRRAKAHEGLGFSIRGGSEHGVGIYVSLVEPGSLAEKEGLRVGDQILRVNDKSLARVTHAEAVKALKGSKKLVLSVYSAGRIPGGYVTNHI

[4] = biological target: T2, DLG3_3, Q92796
T2 sequence (Q92796 374-475, limits assumed, looked up): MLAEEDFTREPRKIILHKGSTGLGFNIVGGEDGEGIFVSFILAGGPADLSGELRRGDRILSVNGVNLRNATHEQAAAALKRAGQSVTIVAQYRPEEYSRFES

[5] = biological target: FRMPD4, Q14CM0
[6] = biological target: GRASP, Q7Z6J2
[7] = biological target: GRID2IP_2, A4D2P6
[8] = biological target: T3, GRIP1_4, Q9Y3R0
T3 sequence (Q9Y3R0 467-571, limits assumed, looked up): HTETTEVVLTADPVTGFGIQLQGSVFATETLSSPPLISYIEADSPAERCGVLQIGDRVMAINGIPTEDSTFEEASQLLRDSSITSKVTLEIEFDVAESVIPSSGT

[9] = biological target: IL16_1, Q14005
[10] = biological target: Inadl_9, Q8NI35
[11] = biological target: LDB3, O75112
[12] = biological target: LNX1_1, Q8TBB1
[13] = biological target: T4, LNX2_2, Q8N448
T4 sequence (Q8N448 334-432, limits assumed, looked up): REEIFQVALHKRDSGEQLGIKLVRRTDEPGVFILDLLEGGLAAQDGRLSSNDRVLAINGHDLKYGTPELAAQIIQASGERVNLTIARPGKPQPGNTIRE

[14] = biological target: MAGI1_1, Q96QZ7
[15] = biological target: MAGI2_6, Q86UL8
[16] = biological target: T5, MPP2, Q14168
T5 sequence (Q14168 180-250, limits assumed, looked up): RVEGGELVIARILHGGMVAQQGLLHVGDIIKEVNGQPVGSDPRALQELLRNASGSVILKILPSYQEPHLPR

[17] = biological target: NHERF2_2, Q15599
[18] = biological target: NHERF4_1, Q86UT5-2
[19] = biological target: NHERF4_2, Q86UT5
[20] = biological target: T6, PARD3B_1, Q8TEW8
T6 sequence (Q8TEW8 196-299, limits assumed, looked up): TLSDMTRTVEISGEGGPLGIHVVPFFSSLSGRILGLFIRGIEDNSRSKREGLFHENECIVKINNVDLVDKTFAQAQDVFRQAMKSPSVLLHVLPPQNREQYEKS

[21] = biological target: T7, PDZD7_3, Q9H5P4
T7 sequence (Q9H5P4 857-944, limits assumed, looked up): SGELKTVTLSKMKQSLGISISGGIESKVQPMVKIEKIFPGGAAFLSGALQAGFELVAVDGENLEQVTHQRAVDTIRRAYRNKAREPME

[22] = biological target: T8, PTPN13_1, Q12923
T8 sequence (Q12923 1088-1188, limits assumed, looked up): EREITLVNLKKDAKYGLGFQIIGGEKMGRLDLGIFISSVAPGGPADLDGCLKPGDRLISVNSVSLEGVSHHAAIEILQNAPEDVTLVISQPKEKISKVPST

[23] = biological target: SCRIB_3, Q14160
[24] = biological target: T9, SHANK1, Q9Y566
T9 sequence (Q9Y566 658-767, limits assumed, looked up): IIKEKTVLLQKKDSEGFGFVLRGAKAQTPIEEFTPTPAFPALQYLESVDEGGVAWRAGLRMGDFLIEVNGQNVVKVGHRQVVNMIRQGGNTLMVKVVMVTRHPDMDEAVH

[25] = biological target: T10, SIPA1L2, Q9P2F8
T10 sequence (Q9P2F8 945-1036, limits assumed, looked up): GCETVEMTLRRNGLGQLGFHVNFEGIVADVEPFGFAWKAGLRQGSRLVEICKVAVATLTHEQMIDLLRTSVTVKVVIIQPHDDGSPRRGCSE

[26] = biological target: T11, SNTG2, Q9NY99
T11 sequence (Q9NY99 68-166, limits assumed, looked up): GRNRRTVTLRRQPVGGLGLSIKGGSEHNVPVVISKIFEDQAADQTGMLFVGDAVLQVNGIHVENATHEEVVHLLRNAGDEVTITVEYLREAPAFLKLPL

Sequence of Inadl_9, Q8NI35 (Q8NI35 1530-1615): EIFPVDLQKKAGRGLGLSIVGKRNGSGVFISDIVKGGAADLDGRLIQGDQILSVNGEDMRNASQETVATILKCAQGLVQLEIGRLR
Sequence of IL16_1, Q14005 (Q14005 210-306): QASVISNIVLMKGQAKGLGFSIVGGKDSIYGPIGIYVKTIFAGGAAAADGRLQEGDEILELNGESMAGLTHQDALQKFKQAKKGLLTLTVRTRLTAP
Sequence of FRMPD4, Q14CM0 (Q14CM0 67-160): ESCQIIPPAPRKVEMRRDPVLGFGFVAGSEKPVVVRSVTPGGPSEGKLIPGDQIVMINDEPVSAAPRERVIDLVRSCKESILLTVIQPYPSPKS
Sequence of MAGI1_1, Q96QZ7 (Q96QZ7 1-106): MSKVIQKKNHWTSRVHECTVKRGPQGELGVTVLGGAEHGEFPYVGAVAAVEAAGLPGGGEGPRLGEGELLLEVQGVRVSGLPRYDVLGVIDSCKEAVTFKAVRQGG
Sequence of MAGI2_6, Q86UL8 (Q86UL8 1141-1229): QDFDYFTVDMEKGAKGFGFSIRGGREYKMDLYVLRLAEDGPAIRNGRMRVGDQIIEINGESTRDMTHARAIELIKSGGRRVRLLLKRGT
Sequence of CASK, O14936 (O14936 487-570): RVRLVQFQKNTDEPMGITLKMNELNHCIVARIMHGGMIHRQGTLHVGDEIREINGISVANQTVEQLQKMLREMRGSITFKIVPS
Sequence of NHERF4_2, Q86UT5 (Q86UT5 220-308): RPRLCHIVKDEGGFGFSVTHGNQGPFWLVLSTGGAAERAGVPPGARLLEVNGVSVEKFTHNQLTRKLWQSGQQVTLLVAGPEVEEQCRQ
Sequence of ARHGEF12, Q9NZN5-2 (Q9NZN5 other isoform, or with tags, fused parts or gaps): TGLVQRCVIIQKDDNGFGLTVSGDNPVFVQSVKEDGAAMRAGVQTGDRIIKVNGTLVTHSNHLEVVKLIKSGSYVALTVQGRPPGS
Sequence of SCRIB_3, Q14160 (Q14160 999-1103): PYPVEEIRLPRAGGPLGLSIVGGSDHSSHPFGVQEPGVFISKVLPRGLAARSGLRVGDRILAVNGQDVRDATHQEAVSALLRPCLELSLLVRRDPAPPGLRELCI
Sequence of LDB3, O75112 (O75112 1-94): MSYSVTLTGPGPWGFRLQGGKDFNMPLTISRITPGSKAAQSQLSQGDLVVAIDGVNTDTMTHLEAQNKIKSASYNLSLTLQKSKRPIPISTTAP
Sequence of GRID2IP_2, A4D2P6 (A4D2P6 272-370): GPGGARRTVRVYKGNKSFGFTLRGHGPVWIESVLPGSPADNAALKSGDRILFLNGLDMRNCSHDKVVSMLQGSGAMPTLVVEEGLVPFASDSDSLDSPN
Sequence of LNX1_1, Q8TBB1 (Q8TBB1 261-371): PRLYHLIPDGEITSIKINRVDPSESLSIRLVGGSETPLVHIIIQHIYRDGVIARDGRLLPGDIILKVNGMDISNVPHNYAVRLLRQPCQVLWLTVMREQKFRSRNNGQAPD
Sequence of NHERF4_1, Q86UT5-2 (Q86UT5 other isoform, or with tags, fused parts or gaps): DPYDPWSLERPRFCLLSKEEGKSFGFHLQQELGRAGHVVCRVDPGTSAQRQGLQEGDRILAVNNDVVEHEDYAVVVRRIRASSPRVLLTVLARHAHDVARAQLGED
Sequence of GRASP, Q7Z6J2 (Q7Z6J2 96-193): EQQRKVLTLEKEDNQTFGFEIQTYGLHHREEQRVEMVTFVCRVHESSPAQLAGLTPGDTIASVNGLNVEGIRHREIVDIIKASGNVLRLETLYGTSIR
Sequence of NHERF2_2, Q15599 (Q15599 142-238): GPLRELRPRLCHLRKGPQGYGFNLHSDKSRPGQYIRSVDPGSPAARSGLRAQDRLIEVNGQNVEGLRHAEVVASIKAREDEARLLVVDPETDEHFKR

Binder | pKd [1] | pKd [2] | pKd [3] | pKd [4] | pKd [5] | pKd [6] | pKd [7] | pKd [8] | pKd [9] | pKd [10] | pKd [11] | pKd [12] | pKd [13] | pKd [14] | pKd [15] | pKd [16] | pKd [17] | pKd [18] | pKd [19] | pKd [20] | further results
IPLDGETEEL [MYOZ1, Q9NP98] | below the threshold | below the threshold | below the threshold | below the threshold | 4.03 | 3.74 | below the threshold | below the threshold | below the threshold | below the threshold | 4.46 | below the threshold | below the threshold | below the threshold | below the threshold | below the threshold | 3.96 | 4.2 | below the threshold | below the threshold | pKd [21]: below the threshold; pKd [22]: below the threshold; pKd [23]: below the threshold; pKd [24]: below the threshold; pKd [25]: below the threshold; pKd [26]: below the threshold
QSLNRMEYIV [JAG1, P78504] | below the threshold | below the threshold | below the threshold | below the threshold | below the threshold | below the threshold | below the threshold | below the threshold | 3.91 | 3.65 | below the threshold | below the threshold | 5.4 | below the threshold | below the threshold | below the threshold | below the threshold | below the threshold | below the threshold | 3.83 | pKd [21]: 3.68; pKd [22]: below the threshold; pKd [23]: below the threshold; pKd [24]: below the threshold; pKd [25]: below the threshold; pKd [26]: below the threshold
GNSVLKSTQF [SLC22A12, Q96S37] | below the threshold | below the threshold | 3.6 | below the threshold | below the threshold | 4.07 | below the threshold | below the threshold | below the threshold | below the threshold | below the threshold | below the threshold | below the threshold | below the threshold | below the threshold | below the threshold | 4.47 | 4.1 | below the threshold | 4.21 | pKd [21]: 4; pKd [22]: below the threshold; pKd [23]: below the threshold; pKd [24]: 4.96; pKd [25]: below the threshold; pKd [26]: below the threshold
RHGSCVETSL [TMEM151B, Q8IW70] | 5.07 | below the threshold | 4.61 | 4.2 | 4.51 | 4.21 | 4.36 | below the threshold | 3.62 | below the threshold | below the threshold | 3.66 | below the threshold | below the threshold | 4.16 | below the threshold | 4.75 | 4.51 | below the threshold | 3.95 | pKd [21]: 4.46; pKd [22]: below the threshold; pKd [23]: 5.36; pKd [24]: 4.64; pKd [25]: below the threshold; pKd [26]: 4.8
